Data on 2 sequences can be found in publication PMC6146835.

The subject of the data set is HBG-4kb ZF (synthetic 6-zinc-finger DNA-binding domain) (synthetic construct). The experiment in a line: EMSA. To be noted: 10 mM Tris pH 7.5, 50 mM KCl, 5 mM MgCl2, 100 uM ZnCl2, 1 mM DTT, 0.05% Triton X-100, 2.5% glycerol, 100 ng herring sperm DNA per 20 ul, 15 nM Cy5-dsDNA ….

By Kd is commonly meant a measure of binding affinity in units of concentration. High values mean lower affinity, low ones higher affinity.

Sequence “GAGAACTTAGTGGGGGAAAAAAAGCAGAGAGTATAT (double strand) [HBG-4kb off-target (2-nt mutant)]” had a Kd of 90 nM. With “GAGAACTTAGTGGGGGAAAGCAAGCAGAGAGTATAT (double strand) [HBG-4kb on-target]”, the dissociation constant Kd is 29.5 nM.
